Here are results for 16 sequences from the DeepSol protein solubility set.

This series is described as follows: soluble on expression in E. coli; label from the status in PepcDB or PDB records.
Take “GMTMPIFNISDDVDLVPAMPAEGRDGGSYRRQIWQDDVENGTIVAVWMAEPGIYNYAGRDLEETFVVVEGEALYSQADADPVKIGPGSIVSIAKGVPSRLEILSSFRKLATVIPKP”: the “soluble on expression in E. coli” value is “soluble”. To “GMTRTMSFHKNCELCTTAGGEILWQDALCRVVHVENQDYPGFCRVILNRHVKEMSDLRPAERDHLMLVVFAVEEAVREVMRPDKINLASLGNMTPHVHWHVIPRFKRDRHFPNSVWGETKRESLPQALDQGSTTALKKAISVRLDQGEPVFMGM” belongs “soluble”. “GMTSREDEIRDFLATHGYADWNRTPLAGDASSRRYQRLRSPTGAKAVLMDWSPEEGGDTQPFVDLAQYLRNLDISAPEIYAEEHARGLLLIEDLGDALFTEVINNDPAQEMPLYRAAVDLLIHLHDAQTPELARLDPETLSEMTRLAFSEYRYAILGDAAEDNRKRFEHRFAQILSAQLEGDMVFVHRDFHAQNLLWLPEREGLARVGVIDFQDAKLGHRAYDLVSLLQDARRDVPAQVEAQMIDHYIQATGVDESHFRSAYAVIAVQRNMRILGIFARLSQRFGKRHYIEFVPRVWAHFERGLAHPALASAAEEILNALPAPAPEVLERLRA”: the “soluble on expression in E. coli” value is reported as “soluble”.

Turning to “GMVEPMTPRFKYTKASQENIQQLGNILEQCFVMSFGDSEIYVKGIGLENFRVIYREQKVAGGLAILPMGQWWGGQRVPMAGIAAVGIAPEYRGDGAAIALIQHTLQEISEQDIPISVLYPATQRLYRKAGYEQAGSSCVWEIPTDSIQIQHASLPLEPVVLKNNPIFHELYQQQAQLTHGYLDRHPAIWQGLNRTLDTETLYSYLIGDKDKPQGYIIFTQERTRDGSILRIRDWVTLSNPAVQSFWTFIANHRSQIDKVTWKSSVIDALTLLLPEQSATIRSQDRWMLRIVNVCKALEARGYPLGVEAELHLEVQDDLLATNQGKFILSVANGKSEVTKGGKGELQLDIKGLASLYTSLFTPRQLQLTGKLQATETALLKATQIFAGESPWMIDFF”, the “soluble on expression in E. coli” value is on record as “soluble”. The same measure for “GMVRYPLEPVLSIKKDRVDRAEKVVKEKRRLLELEQEKLRERESERDKVKNHYMQKIRQLREQLDDGTTSDAILKMKAYIKVVAIQLSEEEEKVNKQKENVLAASKELERAEVELTKRRKEEEKTRLHKEEWMKEALKEEARQEEKEQDEMGQLLHQLHKQKQRESGEN”: “soluble”; for “GMVYVDPDRFDELVAEALDGIPEEFARAMRNVAVFVEDEPDDPELLGLYVGIPLTERTTAYGGVLPDRIIIYRNTICALCETESEVIDEVRKTVVHEIAHHFGIDDERLHELGY”: “soluble”. Turning to “GNGFDVENYKDKEIVIVAGGTGVSPVRGVVEYFAKNSKEAKSVTLIAGFKTPKDILFSEDFKEWKNNINIILTVDSAEGDSNFKEGLVTKYIPELKLQNVKEASAIVVGPPAMMRFSTQGLLDVGFKEENMWISQERKMCCGIGKCGHCKIDDVY”, the “soluble on expression in E. coli” value is on record as “not soluble”. To “GPGHMEGLRCVVLPEDLCHKFLQLAESNTVRGIETCGILCGKLTHNEFTITHVIVPKQSAGPDYCDMENVEELFNVQDQHDLLTLGWIHTHPTQTAFLSSVDLHTHCSYQLMLPEAIAIVCSPKHKDTGIFRLTNAGMLEVSACKKKGFHPHTKEPRLFSICKHVLVKDIKIIVLDLR” belongs “soluble”. To “GPGSDQLKQSAFLVRNDEKVAALIVLLKRVLHVGEAAANSAQALIFSESKFHVEFLQMILTHYSISTSAVHGQMDQEARRLAVRSFAKRETSVMVVTDVAARGLDLPLLDNVVNFSFPFNPKLFVHRVGRVARAGRSGTAYSIMTFEDFPYYVDLMQFIGRPLQSAPVPGDLLFTPDDGCYGRLPEEDIQLELDFLKRLH” belongs “not soluble”. Take “GPGSMACLSRIDANLLQYYEKPEPNNTVDLYVSNNSNNNGLKEGDKSISTPVPQPYGSEYSNCLLLSNSEYICYHFSSRSTLLTFYPLSDAYHGKTINIHLPNASMNQRYTLTIQEVEQQLLVNVILKDGSFLTLQLPLSFLFSSANTLNGEWFHLQNPYDFTVRVPHFLFYVSPQFSVVFLEDGGLLGLKKVDGVHYEPLLFNDNSYLKSLTRFFSRSSKSDYDSVISCKLFHERYLIVLTQNCHLKIWDLTSFTLIQDYDMVSQSDSDPSHFRKVEAVGEYLSLYNNTLVTLLPLENGLFQMGTLLVDSSGILTYTFQNNIPTNLSASAIWSIVDLVLTRPLELNVEASYLNLIVLWKSGTASKLQILNVNDESFKNYEWIESVNKSLVDLQSEHDLDIVTKTGDVERGFCNLKSRYGTQIFERAQQILSENKIIMAHNEDEEYLANLETILRDVKTAFNEASSITLYGDEIILVNCFQPYNHSLYKLNTTVENWFYNMHSETDGSELFKYLRTLNGFASTLSNDVLRSISKKFLDIITGELPDSMTTVEKFTDIFKNCLENQFEITNLKILFDELNSFDIPVVLNDLINNQMKPGIFWKKDFISAIKFDGFTSIISLESLHQLLSIHYRITLQVLLTFVLFDLDTEIFGQHISTLLDLHYKQFLLLNLYRQDKCLLAEVLLKDSSEFSFGVKFFNYGQLIAYIDSLNSNVYNASITENSFFMTFFRSYIIENTSHKNIRFFLENVECPFYLRHNEVQE”: the “soluble on expression in E. coli” value was “soluble”.

Consider “GPGSMADYLREKVLESLGISFRETQNCRRWITEVTNMIWEAQPAELRTALCWTTPLGLVVRQPYKVRKEITLFTPHGCSRIPGDAFSAASRKQLTAIAPNLIHSLDATHLAMTAIEMQNLGLSMMAVHDSYWTYACDLPVLSKVLRQQFVTLYSKYDPLWELKEQWEEAYFMDLRRHGTLLPDPPKRGDLDLSVVLDSPYFFS”, for which the “soluble on expression in E. coli” value is on record as “not soluble”. In the case of “GPGSMAGWASLGRSFRTPESRSEELVKKAIEGDALRIGSGDTVKHEEAVSPFAAKLFSNITGSQRYVLIAVRHTQPATVDESRKAAIFHHDIRQAGIAMGHDEILAVGHARLEPGEQFGWREPLMLFVQIILIDKTGFHPSTCSLDAMFRLVVEWAGSRIKRMQPPHCISHDGYFLGRSKVR”, the “soluble on expression in E. coli” value is reported as “not soluble”. To “GPGSMDAVRAMDYTDIYLRPRKKESVSPQEPLRSAQVDSAAESRVEWMLKGAFSVQQLLDRVEELSARVCMFDEKMVNLTKLVKLAQGIQEEKEADIRFQQQELLSRLKRLEQACARLEDMETFKQFIISKVQETLEDAHQAFLSDLAKIRADGEEQAARTKQRIENTVSDVRRDVEERIASLWGEAEQKDLSRQEAQDTLREKLRLVESSLRDLEMSVGRDYSRVPPLQEKIDGITQSLSSLEQKVDKTAGTVVTLGNEAKQARALLMEEIETTRQWVTRNLQRVKQHVEVISSDVEQLHNGRADLSARISRISCQADMECKKLRSQLSQKALVADALDNLVQKEFYKVEDVALRHQSLRTEVGAVKDV” belongs “not soluble”; to “GPGSMDTECLRARHSECIDLASVQLRRQLMDSGIPFTEAEIAALPARFVELLISRLEMFRQREVETRAAVDKCRRETEVEEMRFEQLREATERVQGEKRIISSKISAAVSEYMREDKLEKEKQRERHNELQEVFRQVEKKEAEHRREIIEMERLRKMLKKVTK”, “not soluble”; to “GPGSMEDYKAKGNDAFKAKRYQEAIDWYTKAIELDPNGEASGALYSNRAGSWQNLNNFEKAAADSEQCIRLRPDWLKGYFRLGVAMESMVKYDEAQKAFQKALQLSPGNEEGWTSCTPLILKFASAYEKTKSRSARPLKKPSNLATPS”, “soluble”. To “GPGSMEFVAEAHGYLITGLALDSQGDLFAICSCSGELLRLNKEENTLVSIMATEASPYNIAIEPNSGSVFITDRSENAILKLEDAATVRAEQELREGKDQESQAAYTTVQYLNAFEGRSFLGPTAIAFSPSGELFFTDAGAEGDSSFSDPVGAVYRTTMNHEHLVPICTRGLIRPSAIAVAPDNSVYVCEQGTNRVLRFVQRSTFYVGNVFAQLQGGMGPRAIAVSPRDGSVFVAQYDISAVEAPTEEGESEKGNEDAGEGEGGDDGKVQNQSALESAGEGGIITVLGRDGDVRGIVRTMRPCITAIALDASGETLYVMEGDEANGSSKLYKLQVLPLDDQQCGGQAE” belongs “not soluble”.
